T1: DLL3 endogenously expressed on SHP77 cells (human, UniProt Q9NYJ7 27-618)
T1 construct: whole, on cells; also called human DLL3 on SHP-77
T1 sequence (looked up): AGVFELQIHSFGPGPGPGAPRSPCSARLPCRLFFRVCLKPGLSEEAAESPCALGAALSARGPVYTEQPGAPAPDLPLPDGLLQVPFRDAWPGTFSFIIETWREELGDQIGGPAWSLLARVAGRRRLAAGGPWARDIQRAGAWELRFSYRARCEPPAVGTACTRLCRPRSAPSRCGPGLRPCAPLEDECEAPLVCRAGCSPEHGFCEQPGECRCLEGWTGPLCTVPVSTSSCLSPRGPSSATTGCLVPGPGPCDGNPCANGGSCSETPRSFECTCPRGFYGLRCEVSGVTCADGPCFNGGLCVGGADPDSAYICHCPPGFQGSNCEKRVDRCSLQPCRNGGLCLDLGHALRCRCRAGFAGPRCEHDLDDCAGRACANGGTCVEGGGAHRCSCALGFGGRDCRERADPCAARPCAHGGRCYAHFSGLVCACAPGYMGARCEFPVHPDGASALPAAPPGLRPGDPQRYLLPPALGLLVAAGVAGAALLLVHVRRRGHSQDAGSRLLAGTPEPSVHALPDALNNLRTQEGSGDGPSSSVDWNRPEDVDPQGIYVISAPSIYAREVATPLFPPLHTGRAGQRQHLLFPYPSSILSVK


Target: T1, DLL3 endogenously expressed on SHP77 …
Assay: flow cytometry (FACS) on SHP77 cells

binding result	Binder
binds	DLL3-scFv-1 (scFv, Murine anti-DLL3 clone; also called DLL3 chimeric antibody DLL3-scFv-1) scFv: DIVMTQSQKFMSTSVGDRVSITCKASQNVGTAVAWYQQKPGQSPKLLIFSASIRYTGVPDRFTGSGSGTDFTLTISNMQSEDLADYFCQQYSSSPYTFGGGTKLEIKGGGGSGGGGSGGGGSEVQLQQSGPVLVKPGASVKMSCKASGYTFTDYYMNWVKRSHGKSLEWIGIINPYNGGTSYNQKFRGKATLTVDKSSNTAYMELNSLTSEDSAVYYCSRYDYDYDVEGAMDYWGQGTSVTVSS
binds	DLL3-scFv-2 (scFv, Murine anti-DLL3 clone; also called DLL3 chimeric antibody DLL3-scFv-2) scFv: DIVMTQSPATLSVTPGDRVSLSCRASQTISDYLHWYQQRSHESPRLLIKYASQSISGIPSRFSGSGSGSDFTLSINSVEPEDVGVYYCQNGHSFPLTFGAGTKLELKGGGGSGGGGSGGGGSEVQLQQSGTVLARPGASVKMSCKTSGYTFTSYWMHWVKQSPGQGLEWIGTIYPGNSDTRYNQKFKDKAYVTAVTSASTAYMELSSLTNEESAVYYCTRSYDYGDLDYWGQGTTLTVSS
binds	DLL3-scFv-3 (scFv, Murine anti-DLL3 clone; also called DLL3 chimeric antibody DLL3-scFv-3) scFv: DIVLTQSPASLAVSLGQRATISCRASKSVSTSGFSYMHWYQQKPGQPPKLLIYLASNLESGVPARFSGSGSGTDFTLNIHPVEEEDAATYYCQHSRELPFTFGSGTKLEIKGGGGSGGGGSGGGGSQVQLQQSGAELVKPGASVRISCKASGYAFSNYWINWVKQRPGKGLEWIGQINPGDGDTIYNGKFKGKATLTADKSSSTAYMQLSSLTSEDSAVYFCEREGRNYGDFAYWGQGTTLTVSS
